Data published in publication PMC10624691, “HSPA8 acts as an amyloidase to suppress necroptosis by inhibiting and reversing functional amyloid formation” (Cell Research, 2023).

Experiments:
[1] = target: the molecule itself; assay: seeded fibril growth assay (ThT fluorescence, negative-stain EM, pelleting); sonicated fibril seeds (0.5 uM) with monomers (5 uM), with or without HSPA8 (5 uM); 30 C by the methods, 37 C for 2 h by the legend of Fig. 3c; fibrils pelleted at 12,000 g
[2] = target: T1, recombinant hHSPA8-CT (C-terminal fragment 385-647, SBD; 6xHis-Sumo) (human, UniProt P11142 385-646); assay: negative staining immunogold EM; RIP3 fibrils with HSPA8-SBD on grids; anti-HSPA8 antibody 1:100, anti-rabbit gold-conjugated antibody; details: both partners purified
T1 construct: human HSPA8 C-terminal fragment, residues 385-647 as printed; also called HSPA8-SBD; HSPA8 SBD domain; source: E. coli BL21 (DE3), purified (Ni-NTA, Superdex 200)
T1 sequence (P11142 385-646): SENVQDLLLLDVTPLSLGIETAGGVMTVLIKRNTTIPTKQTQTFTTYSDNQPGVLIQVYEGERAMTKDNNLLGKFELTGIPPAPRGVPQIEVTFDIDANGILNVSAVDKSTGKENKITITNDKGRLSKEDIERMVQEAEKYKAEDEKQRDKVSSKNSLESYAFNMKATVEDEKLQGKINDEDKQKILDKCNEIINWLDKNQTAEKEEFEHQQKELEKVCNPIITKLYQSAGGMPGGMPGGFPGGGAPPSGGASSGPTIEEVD

[3] = target: T2, GST-tagged HSPA8-SBD domain (GST-HSPA8-SBD 385-647) ( (human or mouse cDNA cloned), UniProt P11142 385-646); assay: pull-down; His pull-down on Ni-NTA; His-Sumo-RIP3(388-518)-4A as bait, GST-HSPA8-SBD as prey; mixed 1:1 (50 uM each) for 6 h at 4 C; details: both partners purified
T2 construct: The plasmid methods name only 6xHis-Sumo constructs for E. coli; the GST construct is not described there; source: E. coli, purified
T2 sequence (P11142 385-646): as above

B1: TRIF(677-698) (peptide, UniProt Q8IUC6 677-698, looked up)
peptide: QPLIIHHAQMVQLGLNNHMWNQ
notes: TRIF residues 677-698; source: custom-made by WuXi AppTec
B1: binds [1].

B2: RIP1(497-582) (domain or fragment, human, UniProt Q13546 497-582, looked up)
chain: MPSLHNIPVPETNYLGNTPTMPFSSLPPTDESIKYTIYNSTGIQIGAYNYMEIGGTSSSLLDSTNTNFKEEPAAKYQAIFDNTTSL
notes: the reagents paragraph prints 498-582; two first limits printed (497 and 498); also called RIP1_((498-582)); source: recombinant, generated previously
B2: binds [1].

B3: hRIP3(388-518) tagged with 6xHis-Sumo (RIP3 fibrils of Fig. 4) (domain or fragment, human, UniProt Q9Y572 388-518, looked up)
chain: SSDSMAQPPQTPETSTFRNQMPSPTSTGTPSPGPRGNQGAERQGMNWSCRTPEPNPVTGRPLVNIYNCSGVQVGDNNYLTMQQTTALPTWGLAPSGKGRGLQHPPPVGSQEGPKDPEAWSRPQGWYNHSGK
notes: human RIP3 residues 388-518; also called RIP3 amyloids; source: E. coli BL21 (DE3), purified (Ni-NTA, Superdex 200)
B3: binds [2].

B4: His-Sumo-RIP3(388-518)-4A (domain or fragment, human, UniProt Q9Y572 388-518, looked up)
chain: SSDSMAQPPQTPETSTFRNQMPSPTSTGTPSPGPRGNQGAERQGMNWSCRTPEPNPVTGRPLVNIYNCSGAAAADNNYLTMQQTTALPTWGLAPSGKGRGLQHPPPVGSQEGPKDPEAWSRPQGWYNHSGK
notes: human RIP3 residues 388-518 with the RHIM core VQVG replaced by AAAA; also called His-tagged RIP3-RHIM-4A; His-tagged RHIM-4A-containing RIP3 (388-518 aa); source: E. coli, purified
B4: binds [3].
